# Results taken from paper doi:10.1101/2024.12.02.626503 (bioRxiv, 2024).
# The star is where a group is joined. 5‑TAMRA = CN(C)c1ccc2c(-c3ccc(C(=O)*)cc3C(=O)[O-])c3ccc(N(C)C)cc3[o+]c2c1
# Molecular target: CaM WT (UniProt P0DP23 1-149)
# Assay: fluorescence polarisation
row,Binder,binding result
1,5-TAMRA-labeled CaV1.3 IQ peptide (5-TAMRA on the N-terminus; C-terminal amide (NH2)) peptide: not shown,binds
2,{5‑TAMRA}-TDLTVGKIYAAMMIMEYYRQSKAKKLQAMREEQD-NH2 (SMILES CC[C@H](C)[C@H](NC(=O)[C@H](CCCCN)NC(=O)CNC(=O)[C@@H](NC(=O)[C@@H](NC(=O)[C@H](CC(C)C)NC(=O)[C@H](CC(=O)O)NC(=O)[C@@H](NC(=O)c1ccc(-c2c3ccc(N(C)C)cc3[o+]c3cc(N(C)C)ccc23)c(C(=O)[O-])c1)[C@@H](C)O)[C@@H](C)O)C(C)C)C(=O)N[C@@H](Cc1ccc(O)cc1)C(=O)N[C@@H](C)C(=O)N[C@@H](C)C(=O)N[C@@H](CCSC)C(=O)N[C@@H](CCSC)C(=O)N[C@H](C(=O)N[C@@H](CCSC)C(=O)N[C@@H](CCC(=O)O)C(=O)N[C@@H](Cc1ccc(O)cc1)C(=O)N[C@@H](Cc1ccc(O)cc1)C(=O)N[C@@H](CCCNC(=N)N)C(=O)N[C@@H](CCC(N)=O)C(=O)N[C@@H](CO)C(=O)N[C@@H](CCCCN)C(=O)N[C@@H](C)C(=O)N[C@@H](CCCCN)C(=O)N[C@@H](CCCCN)C(=O)N[C@@H](CC(C)C)C(=O)N[C@@H](CCC(N)=O)C(=O)N[C@@H](C)C(=O)N[C@@H](CCSC)C(=O)N[C@@H](CCCNC(=N)N)C(=O)N[C@@H](CCC(=O)O)C(=O)N[C@@H](CCC(=O)O)C(=O)N[C@@H](CCC(N)=O)C(=O)N[C@@H](CC(=O)O)C(N)=O)[C@@H](C)CC) [5-TAMRA-labeled CaV2.1 IQ peptide],binds
